Test results: publication PMC3084833

Assays:
[1] = target: ΔCT-PxxP bestrophin-1 (human bestrophin-1 lacking the C-terminal proline-rich region between 462 and 575) (human) (UniProt O76090); experiment: co-IP; HEK-293 cells co-transfected with wild-type or ΔCTPxxP bestrophin-1 and β3- or His-tagged β4-subunits; IP with anti-bestrophin-1 antibody, blot anti-β3, or IP with anti-His antibody, blot anti-bestrophin-1; relative co-precipitation efficiency by densitometry of lysate, precipitate and non-bound fraction
[2] = target: calcium channel, voltage-dependent, β4-subunit, His6-tagged (rat, β4-pCDNA3) (Rattus norvegicus) (UniProt D4A055); experiment: as above

Substance | co-precipitation efficiency [1] | co-precipitation efficiency [2]
calcium channel, voltage-dependent, β3-subunit (rat, untagged, β3-pCMV) (from UniProt P54287 1-484) (natural protein) | 4% | 
ΔCT-PxxP bestrophin-1 (human bestrophin-1 lacking the C-terminal proline-rich region between 462 and 575) (from UniProt O76090-1 1-585) (natural protein) |  | 4%
